Positions count from the first letter of the chain named. In names and notes the source's numbering stands.
Experiments:
[1] = biological target: the molecule itself; assay: crystal structure; WT hTREX1 with 22-nt Y-form dsDNA (1:1.3 protein:DNA), 0.05 M Li2SO4, 0.1 M Bis-Tris pH 6.5, 25% PEG-3350, 18 °C; spacegroup P 1 21 1, 3 copies of hTREX1-DNA dimer in the asymmetric unit
[2] = biological target: the molecule itself; assay: crystal structure; apo hTREX1 chimeras, hanging-drop vapor diffusion at 18 °C; spacegroup P 41 21 2, one hTREX1 dimer in the asymmetric unit
hTREX1 K160R = biological target: T1, hTREX1 K160R (Homo sapiens, UniProt Q9NSU2 1-242, K160R); assay: thermal shift (thermofluor); 10 uM protein; 10 or 20 uM DNA; higher than WT; Tm about 63.2 C at 20 uM DNA (mean of source data, column order inferred); EMSA: 20 mM HEPES-NaOH pH 7.8, 75 mM KCl, 10 mM EDTA, 1 mM DTT, 4 C 30 min, 2% agarose; thermofluor: 20 mM Tris-HCl pH 7.5, 75 mM KCl, 1 mM TCEP, DNA preincubated at 4 C 30 min, 20-95 C ramp; crystals: 20 mM HEPES-KOH pH 7.5, 78 mM KCl, 1 mM TCEP over 0.05 M Li2SO4, …; conditions: protein: recombinant; tags: none (His-SUMO2 removed by SENP2); chain copies: 2; blunt; self-complementary strand
T1 sequence: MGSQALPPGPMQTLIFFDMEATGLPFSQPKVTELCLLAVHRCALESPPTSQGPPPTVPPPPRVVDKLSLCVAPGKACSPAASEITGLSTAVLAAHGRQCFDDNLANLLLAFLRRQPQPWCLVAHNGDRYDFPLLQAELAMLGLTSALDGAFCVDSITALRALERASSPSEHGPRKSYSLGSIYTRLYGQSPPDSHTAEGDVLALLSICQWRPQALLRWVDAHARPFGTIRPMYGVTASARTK

B1: human TREX1 (wildtype), N-terminal enzymatic domain, amino acids 1-242 (enzyme, UniProt Q9NSU2-3 1-242, looked up)
chain: T1 sequence with R160K
notes: human TREX1, C-terminal truncation, amino acids 1-242 of the 314-residue protein (catalytic domain 1-242, C-terminus 243-314); numbers count on: the 314-residue form; Crystallised with 22-nt Y-form dsDNA (2:2 complex); also called hTREX1; WT hTREX1; source: E. coli BL21-RIL DE3, purified (Ni-NTA, Heparin HP, Superdex S75)
binding result [1]: binds

B2: hTREX1 Chi 5.1 (A5T/P8H/P10H), amino acids 1-242 (enzyme, human, UniProt Q9NSU2-3 1-242, looked up)
chain: T1 sequence with A5T, P8H, P10H, R160K
notes: human TREX1, amino acids 1-242 of the 314-residue protein, with three mouse-like mutations; numbers count on: the 314-residue form; also called human TREX1 Chi 5.1; source: E. coli BL21-RIL DE3, purified (Ni-NTA, Heparin HP, Superdex S75)
binding result [2]: binds

B3: 30-bp dsDNA (dsDNA)
DNA 1: GCTCGAGTCATGACGCGTCATGACTCGAGC
DNA 2: B3 DNA 1
binding result (hTREX1 K160R): binds

Source: PMC9314330, “Structural basis of human TREX1 DNA degradation and autoimmune disease” (Nature Communications, 2022)
